# B1: Azoarcus group I ribozyme (parent)
# chain: GUGCCUUGCGCCGGGAAACCACGCAAGGGAUGGUGUCAAAUUCGGCGAAACCUAAGCGCCCGCCCGGGCGUAUGGCAACGCCGAGCCAAGCUUCGGCGCCUGCGCCGAUGAAGGUGUAGAGACUAGACGGCACCCACCUAAGGCAAACGCUAUGGUGAAGGCAUAGUCCAGGGAGUGGCGAAAGUCACACAAACCGG
# Variants of: B1
# Test: reverse-splicing fitness (ratio to wild type); higher = more active; in vitro selection; Mg2+ level not given
# Summary of the method: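 An in vitro group I ribozyme library with randomized positions was T7-transcribed and gel-purified. In triplicate, 10 pmol RNA in EPPS pH 7.5 was reacted with 50 pmoles of a 30-nt RNA substrate for 1 h at 37 °C across several added MgCl2 levels (1–48 mM), then stopped with EDTA. Products were reverse transcribed from a substrate-complementary primer, PCR-amplified and sequenced (HiSeq 4000). Fitness is a variant's read proportion after selection over that before, normalised to wild type.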
row,Variant,reverse-splicing fitness
1,GUGCCUUGCGCCGGGAAACCACGCAAGGGAUGGUGUCAAAUUCGGCGAAACCUAAGCGCCCGCCCGGGCGUAUGGCAACGCAGAGCCAAGCUUCGGCGCCUGCGCCGAUGAAGGUGUAGCGACUAGACGGCACCCACCUAAGGCUAACGCUAUGGUGAAGGCAUAGUCGAGGGAGCGGCGAAAGUCACACAAACCGG [C82A A120C A145U C169G U176C],0.0191
2,GUGCCUUGCGCCGGGAAACCACGCAAGGGAUGGUGUCAAAUUCGGCGAAACCUAAGCGCCCGCCCGGGCGUAUGGCAACGCAGAGCCAAGCUUCGGCGCCUGCGCCGAUGAAGGUGUAGCGACUAGACGGCACCCACCUAAGGCUAACGCUAUGGUGAAGGCAUAGUCGAGGGAGGGGCGAAAGUCACACAAACCGG [C82A A120C A145U C169G U176G],0.00482
3,GUGCCUUGCGCCGGGAAACCACGCAAGGGAUGGUGUCAAAUUCGGCGAAACCUAAGCGCCCGCCCGGGCGUAUGGCAACGCAGAGCCAAGCUUCGGCGCCUGCGCCGAUGAAGGUGUAGCGACUAGACGGCACCCACCUAAGGCUAACGUUAUGGUGAAGGCAUAGUCUAGGGAGCGGCGAAAGUCACACAAACCGG [C82A A120C A145U C150U C169U U176C],0.0137
4,GUGCCUUGCGCCGGGAAACCACGCAAGGGAUGGUGUCAAAUUCGGCGAAACCUAAGCGCCCGCCCGGGCGUAUGGCAACGCAGAGCCAAGCUUCGGCGCCUGCGCCGAUGAAGGUGUAGCGACUAGACGGCACCCACCUAAGGCUAACGUUAUGGUGAAGGCAUAGUCUAGGGAGAGGCGAAAGUCACACAAACCGG [C82A A120C A145U C150U C169U U176A],0.0145
5,GUGCCUUGCGCCGGGAAACCACGCAAGGGAUGGUGUCAAAUUCGGCGAAACCUAAGCGCCCGCCCGGGCGUAUGGCAACGCAGAGCCAAGCUUCGGCGCCUGCGCCGAUGAAGGUGUAGCGACUAGACGGCACCCACCUAAGGCUAACGUUAUGGUGAAGGCAUAGUCUAGGGAGGGGCGAAAGUCACACAAACCGG [C82A A120C A145U C150U C169U U176G],0.00474
6,GUGCCUUGCGCCGGGAAACCACGCAAGGGAUGGUGUCAAAUUCGGCGAAACCUAAGCGCCCGCCCGGGCGUAUGGCAACGCAGAGCCAAGCUUCGGCGCCUGCGCCGAUGAAGGUGUAGCGACUAGACGGCACCCACCUAAGGCUAACGUUAUGGUGAAGGCAUAGUCCAGGGAGUGGCGAAAGUCACACAAACCGG [C82A A120C A145U C150U],0.086
7,GUGCCUUGCGCCGGGAAACCACGCAAGGGAUGGUGUCAAAUUCGGCGAAACCUAAGCGCCCGCCCGGGCGUAUGGCAACGCAGAGCCAAGCUUCGGCGCCUGCGCCGAUGAAGGUGUAGCGACUAGACGGCACCCACCUAAGGCUAACGCUAUGGUGAAGGCAUAGUCGAGGGAGUGGCGAAAGUCACACAAACCGG [C82A A120C A145U C169G],0.00932
8,GUGCCUUGCGCCGGGAAACCACGCAAGGGAUGGUGUCAAAUUCGGCGAAACCUAAGCGCCCGCCCGGGCGUAUGGCAACGCAGAGCCAAGCUUCGGCGCCUGCGCCGAUGAAGGUGUAGCGACUAGACGGCACCCACCUAAGGCUAACGCUAUGGUGAAGGCAUAGUCUAGGGAGUGGCGAAAGUCACACAAACCGG [C82A A120C A145U C169U],0.0199
9,GUGCCUUGCGCCGGGAAACCACGCAAGGGAUGGUGUCAAAUUCGGCGAAACCUAAGCGCCCGCCCGGGCGUAUGGCAACGCAGAGCCAAGCUUCGGCGCCUGCGCCGAUGAAGGUGUAGCGACUAGACGGCACCCACCUAAGGCUAACGCUAUGGUGAAGGCAUAGUCAAGGGAGUGGCGAAAGUCACACAAACCGG [C82A A120C A145U C169A],0.00925
10,GUGCCUUGCGCCGGGAAACCACGCAAGGGAUGGUGUCAAAUUCGGCGAAACCUAAGCGCCCGCCCGGGCGUAUGGCAACGCAGAGCCAAGCUUCGGCGCCUGCGCCGAUGAAGGUGUAGCGACUAGACGGCACCCACCUAAGGCUAACGUUAUGGUGAAGGCAUAGUCGAGGGAGUGGCGAAAGUCACACAAACCGG [C82A A120C A145U C150U C169G],0.0103
11,GUGCCUUGCGCCGGGAAACCACGCAAGGGAUGGUGUCAAAUUCGGCGAAACCUAAGCGCCCGCCCGGGCGUAUGGCAACGCAGAGCCAAGCUUCGGCGCCUGCGCCGAUGAAGGUGUAGCGACUAGACGGCACCCACCUAAGGCUAACGUUAUGGUGAAGGCAUAGUCUAGGGAGUGGCGAAAGUCACACAAACCGG [C82A A120C A145U C150U C169U],0.0159
12,GUGCCUUGCGCCGGGAAACCACGCAAGGGAUGGUGUCAAAUUCGGCGAAACCUAAGCGCCCGCCCGGGCGUAUGGCAACGCAGAGCCAAGCUUCGGCGCCUGCGCCGAUGAAGGUGUAGCGACUAGACGGCACCCACCUAAGGCUAACGUUAUGGUGAAGGCAUAGUCAAGGGAGUGGCGAAAGUCACACAAACCGG [C82A A120C A145U C150U C169A],0.00998
13,GUGCCUUGCGCCGGGAAACCACGCAAGGGAUGGUGUCAAAUUCGGCGAAACCUAAGCGCCCGCCCGGGCGUAUGGCAACGCAGAGCCAAGCUUCGGCGCCUGCGCCGAUGAAGGUGUAGCGACUAGACGGCACCCACCUAAGGCUAACGUUAUGGUGAAGGCAUAGUCAAGGGAGGGGCGAAAGUCACACAAACCGG [C82A A120C A145U C150U C169A U176G],0.00539
14,GUGCCUUGCGCCGGGAAACCACGCAAGGGAUGGUGUCAAAUUCGGCGAAACCUAAGCGCCCGCCCGGGCGUAUGGCAACGCAGAGCCAAGCUUCGGCGCCUGCGCCGAUGAAGGUGUAGCGACUAGACGGCACCCACCUAAGGCUAACGUUAUGGUGAAGGCAUAGUCAAGGGAGAGGCGAAAGUCACACAAACCGG [C82A A120C A145U C150U C169A U176A],0.0178
15,GUGCCUUGCGCCGGGAAACCACGCAAGGGAUGGUGUCAAAUUCGGCGAAACCUAAGCGCCCGCCCGGGCGUAUGGCAACGCAGAGCCAAGCUUCGGCGCCUGCGCCGAUGAAGGUGUAGCGACUAGACGGCACCCACCUAAGGCUAACGUUAUGGUGAAGGCAUAGUCAAGGGAGCGGCGAAAGUCACACAAACCGG [C82A A120C A145U C150U C169A U176C],0.0134

# Reference: the RNAGym collection of RNA variant scans (doi:10.1093/molbev/msab373)
